# Assay results published in article doi:10.1101/2025.01.11.632576 (bioRxiv, 2025).
# Target: HER2 VHH (2Rs15d) L102S
# Assay: SPR
row,Kd [nM],Molecule
1,3.6,recombinant human HER2 (AA 23-653) (from UniProt P04626 23-653) (domain or fragment)

# Target: HER2 VHH (2Rs15d) I29D
# Assay: SPR
row,Kd [nM],Molecule
1,3.1,recombinant human HER2 (AA 23-653) (from UniProt P04626 23-653) (domain or fragment)

# Target: HER2 VHH (2Rs15d) L102A
# Assay: SPR
row,Kd [nM],Molecule
1,3.1,recombinant human HER2 (AA 23-653) (from UniProt P04626 23-653) (domain or fragment)

# Target: recombinant human HER2 (AA 23-653) (Homo sapiens, UniProt P04626)
# Assay: SPR
binding result,Kd [nM],Molecule
binds,–,HER2 VHH (2Rs15d) Y28K (VHH) VHH: QVQLQESGGGSVQAGGSLKLTCAASGKIFNSCGMGWYRQSPGRERELVSRISGDGDTWHKESVKGRFTISQDNVKKTLYLQMNSLKPEDTAVYFCAVCYNLETYWGQGTQVTVSS
binds,–,HER2 VHH (2Rs15d) G54K (VHH) VHH: QVQLQESGGGSVQAGGSLKLTCAASGYIFNSCGMGWYRQSPGRERELVSRISKDGDTWHKESVKGRFTISQDNVKKTLYLQMNSLKPEDTAVYFCAVCYNLETYWGQGTQVTVSS
binds,–,HER2 VHH (2Rs15d) Y28A (VHH) VHH: QVQLQESGGGSVQAGGSLKLTCAASGAIFNSCGMGWYRQSPGRERELVSRISGDGDTWHKESVKGRFTISQDNVKKTLYLQMNSLKPEDTAVYFCAVCYNLETYWGQGTQVTVSS
binds,–,HER2 VHH (2Rs15d) T58D (VHH) VHH: QVQLQESGGGSVQAGGSLKLTCAASGYIFNSCGMGWYRQSPGRERELVSRISGDGDDWHKESVKGRFTISQDNVKKTLYLQMNSLKPEDTAVYFCAVCYNLETYWGQGTQVTVSS
binds,–,HER2 VHH (2Rs15d) G54A (VHH) VHH: QVQLQESGGGSVQAGGSLKLTCAASGYIFNSCGMGWYRQSPGRERELVSRISADGDTWHKESVKGRFTISQDNVKKTLYLQMNSLKPEDTAVYFCAVCYNLETYWGQGTQVTVSS
binds,–,HER2 VHH (2Rs15d) T58A (VHH) VHH: QVQLQESGGGSVQAGGSLKLTCAASGYIFNSCGMGWYRQSPGRERELVSRISGDGDAWHKESVKGRFTISQDNVKKTLYLQMNSLKPEDTAVYFCAVCYNLETYWGQGTQVTVSS
binds,–,HER2 VHH (2Rs15d) Y28S (VHH) VHH: QVQLQESGGGSVQAGGSLKLTCAASGSIFNSCGMGWYRQSPGRERELVSRISGDGDTWHKESVKGRFTISQDNVKKTLYLQMNSLKPEDTAVYFCAVCYNLETYWGQGTQVTVSS
binds,–,HER2 VHH (2Rs15d) T58K (VHH) VHH: QVQLQESGGGSVQAGGSLKLTCAASGYIFNSCGMGWYRQSPGRERELVSRISGDGDKWHKESVKGRFTISQDNVKKTLYLQMNSLKPEDTAVYFCAVCYNLETYWGQGTQVTVSS
–,31,HER2 VHH (2Rs15d) S32K (VHH) VHH: QVQLQESGGGSVQAGGSLKLTCAASGYIFNKCGMGWYRQSPGRERELVSRISGDGDTWHKESVKGRFTISQDNVKKTLYLQMNSLKPEDTAVYFCAVCYNLETYWGQGTQVTVSS
binds,–,HER2 VHH (2Rs15d) N101D (VHH) VHH: QVQLQESGGGSVQAGGSLKLTCAASGYIFNSCGMGWYRQSPGRERELVSRISGDGDTWHKESVKGRFTISQDNVKKTLYLQMNSLKPEDTAVYFCAVCYDLETYWGQGTQVTVSS
binds,–,HER2 VHH (2Rs15d) Y28D (VHH) VHH: QVQLQESGGGSVQAGGSLKLTCAASGDIFNSCGMGWYRQSPGRERELVSRISGDGDTWHKESVKGRFTISQDNVKKTLYLQMNSLKPEDTAVYFCAVCYNLETYWGQGTQVTVSS
binds,–,HER2 VHH (2Rs15d) D55K (VHH) VHH: QVQLQESGGGSVQAGGSLKLTCAASGYIFNSCGMGWYRQSPGRERELVSRISGKGDTWHKESVKGRFTISQDNVKKTLYLQMNSLKPEDTAVYFCAVCYNLETYWGQGTQVTVSS
binds,–,HER2 VHH (2Rs15d) G54D (VHH) VHH: QVQLQESGGGSVQAGGSLKLTCAASGYIFNSCGMGWYRQSPGRERELVSRISDDGDTWHKESVKGRFTISQDNVKKTLYLQMNSLKPEDTAVYFCAVCYNLETYWGQGTQVTVSS
binds,–,HER2 VHH (2Rs15d) T58S (VHH) VHH: QVQLQESGGGSVQAGGSLKLTCAASGYIFNSCGMGWYRQSPGRERELVSRISGDGDSWHKESVKGRFTISQDNVKKTLYLQMNSLKPEDTAVYFCAVCYNLETYWGQGTQVTVSS
binds,–,HER2 VHH (2Rs15d) G54S (VHH) VHH: QVQLQESGGGSVQAGGSLKLTCAASGYIFNSCGMGWYRQSPGRERELVSRISSDGDTWHKESVKGRFTISQDNVKKTLYLQMNSLKPEDTAVYFCAVCYNLETYWGQGTQVTVSS
